T1: H-M
T1 construct: Drawn on the sheet as human N-terminal part and mouse C-terminal part; Produced by transient transfection of HEK293F and used as conditioned medium; also called Human-mouse chimeric NOTUM
T1 single chain: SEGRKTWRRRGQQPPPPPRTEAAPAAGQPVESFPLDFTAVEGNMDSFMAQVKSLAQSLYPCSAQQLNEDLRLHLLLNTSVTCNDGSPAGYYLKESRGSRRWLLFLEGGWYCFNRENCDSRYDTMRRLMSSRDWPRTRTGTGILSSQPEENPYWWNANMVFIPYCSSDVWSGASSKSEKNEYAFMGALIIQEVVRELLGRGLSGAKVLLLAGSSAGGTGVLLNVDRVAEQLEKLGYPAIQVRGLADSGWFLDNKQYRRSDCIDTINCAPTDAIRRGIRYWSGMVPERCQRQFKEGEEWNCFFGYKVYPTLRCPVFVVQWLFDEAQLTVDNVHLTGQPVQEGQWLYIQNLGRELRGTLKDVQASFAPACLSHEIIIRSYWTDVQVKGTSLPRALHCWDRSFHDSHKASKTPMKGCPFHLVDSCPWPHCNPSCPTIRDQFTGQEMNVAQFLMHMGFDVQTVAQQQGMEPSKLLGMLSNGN

T2: M-H
T2 construct: Drawn on the sheet as mouse N-terminal part and human C-terminal part; Conditioned medium from transfected HEK293F; also called Mouse-human chimeric NOTUM
T2 single chain: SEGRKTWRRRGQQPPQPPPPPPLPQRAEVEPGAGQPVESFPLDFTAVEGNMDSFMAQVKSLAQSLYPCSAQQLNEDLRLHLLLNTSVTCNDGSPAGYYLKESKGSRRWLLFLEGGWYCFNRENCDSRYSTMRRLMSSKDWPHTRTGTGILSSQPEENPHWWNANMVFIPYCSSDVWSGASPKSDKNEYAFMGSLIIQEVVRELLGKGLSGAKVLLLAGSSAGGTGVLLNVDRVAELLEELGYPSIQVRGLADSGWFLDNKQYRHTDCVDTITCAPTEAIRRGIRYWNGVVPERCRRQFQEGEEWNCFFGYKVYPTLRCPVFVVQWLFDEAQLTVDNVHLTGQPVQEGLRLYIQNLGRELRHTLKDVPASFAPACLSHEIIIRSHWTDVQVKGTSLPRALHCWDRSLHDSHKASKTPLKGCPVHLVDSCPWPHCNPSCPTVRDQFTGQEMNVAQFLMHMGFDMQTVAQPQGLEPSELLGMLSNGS

T3: H(Q47)
T3 construct: Drawn on the sheet as a signal peptide (SP) followed by human NOTUM starting at Q47; CD33 signal peptide'; also called Human NOTUM (delta 1-46) with CD33 signal peptide
T3 single chain: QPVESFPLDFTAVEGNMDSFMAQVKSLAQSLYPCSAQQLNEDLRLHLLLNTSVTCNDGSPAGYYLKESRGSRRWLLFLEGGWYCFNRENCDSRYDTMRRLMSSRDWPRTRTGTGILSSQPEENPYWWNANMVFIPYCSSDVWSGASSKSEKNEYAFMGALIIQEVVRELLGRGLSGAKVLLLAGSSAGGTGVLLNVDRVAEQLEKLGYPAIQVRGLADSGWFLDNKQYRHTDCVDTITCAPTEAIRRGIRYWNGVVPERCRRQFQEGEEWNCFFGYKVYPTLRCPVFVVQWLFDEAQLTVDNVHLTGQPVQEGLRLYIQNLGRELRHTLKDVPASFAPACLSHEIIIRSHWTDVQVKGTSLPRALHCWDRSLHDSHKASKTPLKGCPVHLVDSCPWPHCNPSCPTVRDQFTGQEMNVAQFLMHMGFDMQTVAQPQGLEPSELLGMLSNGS

T4: H(N96D)
T4 construct: Human NOTUM with N96D, marked inside the Q47-M177 box on the sheet; also called Human NOTUM N96D
T4 single chain: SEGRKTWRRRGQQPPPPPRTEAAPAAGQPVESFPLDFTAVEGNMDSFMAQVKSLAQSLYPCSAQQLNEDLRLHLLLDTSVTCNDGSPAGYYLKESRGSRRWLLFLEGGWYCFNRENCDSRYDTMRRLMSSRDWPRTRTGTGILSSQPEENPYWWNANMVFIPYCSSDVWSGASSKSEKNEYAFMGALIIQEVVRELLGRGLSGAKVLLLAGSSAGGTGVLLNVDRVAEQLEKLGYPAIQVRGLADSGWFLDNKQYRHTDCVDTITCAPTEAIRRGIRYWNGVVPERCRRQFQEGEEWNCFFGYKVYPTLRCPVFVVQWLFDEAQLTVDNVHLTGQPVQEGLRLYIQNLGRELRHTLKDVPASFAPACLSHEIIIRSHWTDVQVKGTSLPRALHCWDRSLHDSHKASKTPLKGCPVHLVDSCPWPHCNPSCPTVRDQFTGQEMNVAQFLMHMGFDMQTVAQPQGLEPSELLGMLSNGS


Legend:
Experiment in all cases: ELISA on conditioned medium of HEK293F transfected with the NOTUM construct (Example 6.7)
H-M = molecular target: T1, H-M
From the text: (§1) The sequences of those proteins are shown in Section 7 (Table of Sequences). The conditioned media were used in ELISA format to determine antibody specificity. […] Within this region, mouse and human NOTUM differ at five positions (R115K, D141S. R150K, R154H, and Y171H, based on the human sequence numbering). Human NOTUM point mutants were generated by transient transfection of constructs expressing human NOTUM with the mouse amino acid at each of these five positions and the point mutants were all shown to be functional in the OPTS assay.

M-H = molecular target: T2, M-H
From the text: as §1

H(Q47) = molecular target: T3, H(Q47)
From the text: as §1

H(N96D) = molecular target: T4, H(N96D)
From the text: as §1

Row | binding result (H-M) | binding result (M-H) | binding result (H(Q47)) | binding result (H(N96D)) | Binder
1 | binds | no binding | binds | binds | MAb 1.802 (antibody, V domains shown, Mouse monoclonal antibody from Campaign 1 (raised against human NOTUM), IgG1) VH: EVQLVESGGGLVKPGGSLKLSCAASGFTFSDYGMHWFRQAPEKGLEWVAYISSGSRTVYYADTVKGRFTISRDNAKNTLSLQMTSLRSEDTAMYYCARKHYNGGYFDVWGTGTTVTVSS VL: DIVLTQSPASLAVSLGQRATISCRASKIVSTSGYSYMHWYQQKPGQPPKLLIYLASNLESGVPARFSGSGSGTDFTLNIHPVEEEDAATYYCQHSRELPPTFGSGTKLEIKR
2 | binds | no binding | binds | binds | MAb 1.815 (antibody, IgG1, V domains shown, Mouse monoclonal antibody from Campaign 1, IgG1) VH: DVQLLESGGGLVQPGGSRKLSCAASGFTFSDFGMHWVRQAPEKGLEWVAYSSSGGTTVYYADTVKGRLTLSRDNSKNTLFLEMTSLRSEDTAMYYCARASYDGGYFDCWGQGTSLTVSS VL: DIVLTQSPASLAVSLGQRATISCRASKSVSTSGYSYIHWYQQKPGQPPKLLIYLASDLESGVPARFSGSGSGAAFTLNIHPVEEEDAATYYCHHSRELPFTFGSGTKLEIKR
3 | binds | no binding | binds | binds | MAb 1.846 (antibody, IgG2b, V domains shown, Mouse monoclonal antibody from Campaign 1, IgG2b) VH: EVQLVESGGDLVKPGGSLKLSCAASGFTFSDYGMHWLRQAPEKGLEWVAYISSGSTTLSYANTMKGRFTISRDNAKKTLSLQMTSLRSEDTAIYYCARKNYNGGYFDVWGTGTTVTVSS VL: DIVLTQSPASLVVSLGQRATISCRASKSVSESGYSYMHWYQQKPGQPPKLLIYLASNLESGVPARFSGSGSGTDFTLNIHPVEEGDATTYYCQHSRVLPPTFGSGTKLEIKR

From patent US20130302346A1 (LEXICON PHARMACEUTICALS, published 2013)
